According to patent US20120058906A1 (published 2012):

Assays:
[1] = biological target: T1, rHuman P-Cadherin/Fc Chimera, CF (R&D Systems Cat#861-PC) (human, UniProt P22223 108-654); experiment: ECL (MSD Multi-Spot) binding, antigen spotted on plate; Fab 25 nM
T1 construct: Bought Fc chimera; Fc part of the bought chimera not given

[2] = biological target: T2, rHuman CD44/Fc Chimera, CF (R&D Systems Cat#3660-CD) (human, UniProt P16070 21-220); experiment: as above
T2 construct: Bought Fc chimera; Fc part of the bought chimera not given

[3] = biological target: T3, Recombinant Human DLL4 (R&D Systems Cat#1506-D4/CF) (human, UniProt Q9NR61 27-524); experiment: as above
T3 construct: Bought recombinant protein; also called delta-like protein 4

[4] = biological target: T4, rHuman IGF-1 sR, CF (R&D Systems Cat#391-GR) (human, UniProt P08069 31-932); experiment: as above
T4 construct: Bought soluble receptor; also called insulin-like growth factor-1 soluble receptor; IGF-R1

[5] = biological target: T5, rHuman Notch-1/Fc Chimera, CF (R&D Systems Cat#3647-TK) (human, UniProt P46531 19-526); experiment: as above
T5 construct: Bought Fc chimera; Fc part of the bought chimera not given

[6] = biological target: T6, rHuman Erythropoietin R/Fc Chimera, CF (R&D Systems Cat#963-ER) (human, UniProt P19235 25-250); experiment: as above
T6 construct: Bought Fc chimera; also called EPO R/Fc; erythropoietin receptor; Fc part of the bought chimera not given
T6 sequence: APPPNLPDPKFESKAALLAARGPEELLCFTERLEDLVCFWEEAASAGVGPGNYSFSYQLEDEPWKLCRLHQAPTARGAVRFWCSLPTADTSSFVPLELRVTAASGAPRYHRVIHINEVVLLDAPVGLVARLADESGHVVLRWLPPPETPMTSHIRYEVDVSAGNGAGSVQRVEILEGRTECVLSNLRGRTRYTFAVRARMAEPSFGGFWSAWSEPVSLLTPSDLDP

[7] = biological target: T1, rHuman P-Cadherin/Fc Chimera, CF (R&D …); experiment: ECL (MSD Multi-Spot) binding, antigen spotted on plate; Fab 500 nM
[8] = biological target: T2, rHuman CD44/Fc Chimera, CF (R&D Systems …); experiment: as above
[9] = biological target: T3, Recombinant Human DLL4 (R&D Systems …); experiment: as above
[10] = biological target: T4, rHuman IGF-1 sR, CF (R&D Systems …); experiment: as above
[11] = biological target: T5, rHuman Notch-1/Fc Chimera, CF (R&D …); experiment: as above
[12] = biological target: T6, rHuman Erythropoietin R/Fc Chimera, CF …; experiment: as above
[13] = biological target: T1, rHuman P-Cadherin/Fc Chimera, CF (R&D …); experiment: ECL (MSD Multi-Spot) binding, antigen spotted on plate; Fab 1.25 nM
[14] = biological target: T2, rHuman CD44/Fc Chimera, CF (R&D Systems …); experiment: as above
[15] = biological target: T3, Recombinant Human DLL4 (R&D Systems …); experiment: as above
[16] = biological target: T4, rHuman IGF-1 sR, CF (R&D Systems …); experiment: as above
[17] = biological target: T5, rHuman Notch-1/Fc Chimera, CF (R&D …); experiment: as above
[18] = biological target: T6, rHuman Erythropoietin R/Fc Chimera, CF …; experiment: as above
[19] = biological target: T1, rHuman P-Cadherin/Fc Chimera, CF (R&D …); experiment: ECL (MSD Multi-Spot) binding, antigen spotted on plate; Fab 0.0625 nM
[20] = biological target: T2, rHuman CD44/Fc Chimera, CF (R&D Systems …); experiment: as above
[21] = biological target: T3, Recombinant Human DLL4 (R&D Systems …); experiment: as above
[22] = biological target: T4, rHuman IGF-1 sR, CF (R&D Systems …); experiment: as above
[23] = biological target: T5, rHuman Notch-1/Fc Chimera, CF (R&D …); experiment: as above
[24] = biological target: T6, rHuman Erythropoietin R/Fc Chimera, CF …; experiment: as above
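Also: blank spot per well as comparator with Hit at signal to blank ratio of 4 or more.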

B1: Fab VH5-51_IGHD5-18*01>3_IGHJ4*01_G100K_G104T & V3-4_IGLJ1*01 (Fab, V domains shown)
VH: EVQLVQSGAEVKKPGESLKISCKGSGYSFTSYWIGWVRQMPGKGLEWMGIIYPGDSDTRYSPSFQGQVTISADKSISTAYLQWSSLKASDTAMYYCARRKYSYTYDYFDYWGQGTLVTVSS
VL: QTVVTQEPSFSVSPGGTVTLTCGLSSGSVSTSYYPSWYQQTPGQAPRTLIYSTNTRSSGVPDRFSGSILGNKAALTITGAQADDESDYYCVLYMGSGISYVFGTGTKVTVL
notes: Fab made in E. coli
ECL signal [1]: 269
ECL signal [2]: 570
ECL signal [3]: 77900
ECL signal [4]: 780
ECL signal [5]: 440
ECL signal [6]: 597
ECL signal [7]: 815
ECL signal [8]: 923
ECL signal [9]: 25900
ECL signal [10]: 1110
ECL signal [11]: 703
ECL signal [12]: 828
ECL signal [13]: 374
ECL signal [14]: 444
ECL signal [15]: 38800
ECL signal [16]: 674
ECL signal [17]: 312
ECL signal [18]: 448
ECL signal [19]: 331
ECL signal [20]: 394
ECL signal [21]: 1010
ECL signal [22]: 537
ECL signal [23]: 439
ECL signal [24]: 332
